± gives the uncertainty stated by the source.

The nature of this data set: amyloid nucleation score (Sup35N fusion, yeast selection) (log enrichment); library NNK2; higher = more nucleation; inactive = no reads after selection. Put shortly: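 The nucleation score is the log enrichment of output over input reads, calculated with DiMSum and centred on the mode score of non-aggregating sequences. Sequences with under 100 input reads were excluded. Reads came from Illumina sequencing of plasmid inserts from psi-negative yeast expressing Sup35N fused to peptides of 20 random codons, induced 24 hours with 100 μM copper sulfate and grown 7 days at 30°C without adenine and uracil.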

Substance KVQHLQR gave an amyloid nucleation score of 0.403 ± 0.26. Then IFVGVNCIQKISKRYGWYLC, with 0.214 ± 0.77; and GSKTRFF, with “inactive”. The substance PFGKPVYLIFPPGMLVIFRA came in with an amyloid nucleation score of -0.603 ± 1.1. Then FNKDMSNKFNSDKGELSSFM, with “inactive”; and TFGTQELELTD, with “inactive”. Under MGCYFSSLSTTHKGAVDVQL stands 0.13 ± 0.24; under AMWESLP, 1.41 ± 0.25. Consider LTWSVVRKYSIALRCGGR, for which the amyloid nucleation score is -0.002 ± 0.63. Then CCAVTVAMECGGIVLVRYCF, with 0.453 ± 0.66. Under STSSKVGVEAYTRDDRHLLS stands 1.01 ± 0.19; under ACQHSG, 4.36 ± 0.048; under SMYVINRSI, -0.198 ± 0.31. For RDPSTELMISRLARTESCGT, the amyloid nucleation score was determined as 4.94 ± 0.065.

Take TNCSYMMYAAKVSQKYPPFP: the amyloid nucleation score was -0.567 ± 1.1. Then KVRDCIMPRCRGRVCICNYG, with -0.29 ± 0.25; and YCVRVMYNKLRLHMNIVVVC, with 0.705 ± 0.58; and YLKFIKANVRTSGKKLA, with -0.562 ± 1.1. Under YPEADALLRFGVMDIHN stands 0.085 ± 0.36; under GYLILFTCNPLVFLVNRSGR, “inactive”; under YAWKNPYSCWICR, -0.174 ± 0.44. Under WSLYHASERENIRPALTSIW stands 0.325 ± 0.21; under HQFYHFAEENN, -0.249 ± 1. For the substance RLTRALLCFTNKALDQCCST, the amyloid nucleation score entry is “inactive”.

For FCWNYMFVFRIGCFGFDFIG, the amyloid nucleation score result is “inactive”. Under YTNVVYNYLRSCCGAWYGQR stands 9.015 ± 0.068; under YCMNLKDSTLLILKQPARST, 7.045 ± 0.047. Then RTGHTINFVEQPMHTVPMWH, with 5.08 ± 0.068; and SGDGVLVSFSKDSGFQSFGS, with 0.673 ± 0.2; and PAVDRIFSRLCTYSGQFIPQ, with 4.66 ± 0.061. Under VRNFCFDYSVWYENGLTWKR stands 0.527 ± 0.66. MSNDRDVVKVWFFPYDPHQS registered an amyloid nucleation score of -0.378 ± 0.26. As to PVRLPSMWNVDRAFWPDYCQ, the amyloid nucleation score result was “inactive”. Take VVMNFMTDVNSLVWPTS: the amyloid nucleation score entry was “inactive”. Turning to VLFDF, the amyloid nucleation score turned out to be 0.652 ± 0.56. Under WMTRIFTINVGNWWGFMHSR stands 3.02 ± 0.056. For the substance CYLMKSFMNLSDRNVFGNVT, the amyloid nucleation score was -0.295 ± 0.32. The substance VCDGV showed an amyloid nucleation score of -0.582 ± 0.44. In the case of NDNFLCSAIVFCMAVFRFGW, the amyloid nucleation score entry is “inactive”. Under MPGMVTSCTVFCNQFKMETC stands 6.457 ± 0.061; under MRLFVEFSVVLFYSFFNPFF, “inactive”. On to WRYIAVNFSNAFNDLVDSCA, for which the amyloid nucleation score stood at 0.117 ± 0.79. Under LGFWL stands -1.31 ± 0.41; under TNIYLGMIVRVHLLFLMELA, -0.891 ± 1.1. AIPVYFVLLMSITPLQLVVM: the amyloid nucleation score came out at 1.38 ± 0.15.

Turning to FYMLYYQIAVSCHLCFDILV, the amyloid nucleation score result was “inactive”. Then PGHLLRILVFSNNYAYQRDI, with -0.647 ± 0.42. Under CYHVTLMR stands 0.718 ± 0.26; under TFKVVSKDNI, -0.317 ± 0.41.

Substance VVTHYLQIYPRFSMHFFVSV registered an amyloid nucleation score of 1.33 ± 0.22.

SICASWNRINGIVTKLGWSE displayed an amyloid nucleation score of -0.739 ± 0.32. Under LHRKWFGYGCTCSWIGWEEW stands -0.002 ± 0.48; under HGKRFYAECLIVFPIDKRGA, 0.098 ± 1.

Take YLLYSNRQISYTFYCDDTVC: the amyloid nucleation score entry is “inactive”. VCDFIW had an amyloid nucleation score of -1.48 ± 0.63. Under KRFGLVCVIQQAQKWVNGTG stands 0.179 ± 0.51; under VYRNVLSRMQSLCVF, “inactive”; under RFLCFLPNNYLFSAGFSLVL, “inactive”. Then QCLTSRLGSKIVMCKSLDIS, with 0.009 ± 0.23; and KNRRFT, with -0.493 ± 1.1. Then VRPMLGGSNRLHFSMVFDDD, with 5.964 ± 0.059; and VASKGCRYYNRLADFLHWSK, with 0.027 ± 0.74; and LVTECNRDGTLDG, with -0.582 ± 0.49.

With VWRWSKRNATYIGAGIWSGR, the amyloid nucleation score stood at 1.42 ± 0.21. Then FKSVLWCKFLTDIG, with 6.04 ± 0.064. Under TISYKELLFANRFRELQPAD stands 0.299 ± 0.49; under VPLTPLGENTECLSRARDIT, 0.826 ± 0.45. Under GGNTVSHQK stands -0.427 ± 1.1; under DVAYSYRHECIADKLLRVEH, 0.019 ± 0.55. DFMRDFWKDSDNQEVFLLPI gave an amyloid nucleation score of -0.885 ± 0.44. Consider LRVYKTNTRQDLKLDTIMVG, for which the amyloid nucleation score was -1.14 ± 0.34. Under LKRGYSFMRCLGVWRFQEPD stands -0.158 ± 0.25; under IVVRL, 0.639 ± 0.41. Under DNKSCFTNVWNYNVTEHWGH stands -1.4 ± 0.54; under FIRIVSFMRWHATTSALAIA, 0.106 ± 0.36.

In turn, SLVIKTLMIFAYSGATVSRG registered an amyloid nucleation score of -0.545 ± 0.64.

On to IQVLVLPISYISIRGQKWRN, for which the amyloid nucleation score stood at 7.19 ± 0.08. In the case of ILFLVNLFSLSIANVFR, the amyloid nucleation score result was “inactive”.

For the substance INVFGGHLMSYMKSISRVVC, the amyloid nucleation score was -1.13 ± 0.64. Then CLNKIETPSTVKFRECHCCD, with 4.517 ± 0.041; and DHRIWKAAREVVLVCHL, with 0.629 ± 0.4.

For VLFSDA, the amyloid nucleation score is -0.08 ± 1.

In the case of KTIQVGQVA, the amyloid nucleation score was found to be 1.24 ± 0.29. Under LNGGKLWNHRDLWDRTGQVY stands -0.266 ± 1; under VVTIIRSSVWVSTLCFGFFV, 4.01 ± 0.068. Then YLAFSMEHAGCLHHRVSGIM, with 5.46 ± 0.084; and GFLYR, with -1.23 ± 0.3. Then GWRFL, with -1.17 ± 0.54. Substance WKVVSEIWIMGTSSTFVTDH came in with an amyloid nucleation score of 1.11 ± 0.12.

For FLVFYLVCGSGLYMNNGQFF, the amyloid nucleation score was -0.908 ± 0.41. Under WVLDVSFTVVFKMIHGVVSL stands 3.9 ± 0.14; under CASEVDNNSPPRWVRRTAGV, 0.777 ± 0.45; under VPPPVGVIYGIQ, 0.637 ± 0.32. Under LFRFYCMIANCIVLQN stands 4.93 ± 0.045; under LMGGYLEYGSFVTT, 0.453 ± 0.51. Under ISVRPAQSASRPCLDLWLKA stands 1.55 ± 0.36; under WWLYAL, 3.74 ± 0.11; under FYGQMRSKVLCLFH, -1.02 ± 0.76. For GSVHANKD, the amyloid nucleation score was -0.299 ± 0.63. As to YHFYMASYKAFKSGGVGTGG, the amyloid nucleation score is -1.56 ± 1.1. Then YLLGRMKWLNTVRWERRDEF, with 3.51 ± 0.083; and PVRSMNPLRRLNESSRFDEE, with 1.48 ± 0.61. The substance SLVSFFVIKRSYFSTRLCTG returned an amyloid nucleation score of -0.399 ± 0.61.

The substance VLNGGRGVIRLYRVFAGKRF gave an amyloid nucleation score of -1.06 ± 0.47.

NQGLRWLTDRDILRIVEVGM yielded an amyloid nucleation score of 0.027 ± 0.65. Under CYFNARSDSVNVYVV stands -0.029 ± 1.1; under VPLRA, 0.002 ± 0.55. Under LFNVMLCMP stands 4.17 ± 0.048. Under HMFPRWPFDVVKKDPTTTHL stands 0.31 ± 0.41. SDSGQVVNSLGSKEGIRFFD showed an amyloid nucleation score of -1.17 ± 0.38. Under HLCKLSYI stands 1.2 ± 0.33; under NRACFGYEDKLRAMLHLYRS, 0.201 ± 0.45.

In the case of RCSSRPCDLCVTEWIRRMEG, the amyloid nucleation score stood at 0.357 ± 0.45.

In turn, LFRVMILC displayed an amyloid nucleation score of -0.239 ± 0.42. Then MNRPVHSDYVYSFSLEFVVV, with -0.089 ± 1.1. Then NNFSVSFLGVDVF, with -0.199 ± 0.74. Under SMPPRLQSKLPRDFSAQSVK stands 4.63 ± 0.1; under GLEFFLGYGYIAARHWVSGS, 1.59 ± 0.13.

Substance MWTIIMGMVILPRNRNL gave an amyloid nucleation score of 3.8 ± 0.078. Under RAWHPFDGEYNIVFSHIVLK stands -0.525 ± 1.1. Under TDSRFLWGSKRNHCVRWCML stands -0.242 ± 1.1; under FKAERSFLLSRYILKREGSQ, -0.972 ± 0.34. As to FKNLAFTFNLQCL, the amyloid nucleation score was found to be 6.472 ± 0.051. With KLGKPFARRKFCICNSQWVG, the amyloid nucleation score is -0.743 ± 0.31.

Regarding INCRFMVCWA, the amyloid nucleation score was 9 ± 0.052.

HIRFVDWNDTLIWVANGYI registered an amyloid nucleation score of 0.049 ± 0.8. Then YQRMPSIYGEVVCHQSCQGV, with -0.069 ± 0.45; and RNIVDISSNVRCWLGRPAIS, with 3.27 ± 0.066; and YHCENDEALIRDSGPSKTTK, with 0.485 ± 0.41. Under SKGYYTLKVTYWTFR stands -0.745 ± 0.44. Under ASQFCNKSSSYRDSRYLYTL stands -0.802 ± 0.38; under CSCGYMKANR, -0.721 ± 1; under GSFMYSREVRLRYALARSFE, -0.545 ± 0.41. In the case of ACLLLRSMFSKQRLTFR, the amyloid nucleation score is -0.38 ± 0.76.

In the case of VIAKDLMHMLPLYM, the amyloid nucleation score was 0.37 ± 0.25. YCMFFCGCVTDPECNVPSDM showed an amyloid nucleation score of 3.49 ± 0.1. For CLSGLLIWAHHSLKLDVLIG, the amyloid nucleation score turned out to be 0.366 ± 0.64.

Turning to NRVGSSGSRYALHRVSSS, the amyloid nucleation score was 4.846 ± 0.045.

Regarding GAKIGKMDVLGFDGDGLIYI, the amyloid nucleation score came out at 1.42 ± 0.1.
